The Human Domainome abundance scans (Beltran et al. 2025)

B1: PMS1 protein homolog 1, residues 572 to 637; numbered along this chain, P54277 (parent)
chain: KKPMSASALFVQDHRPQFLIENPKTSLEDATLQIEELWKTLSEEEKLKYEEKATKDLERYNSQMKR

Variants of: B1
Experiment: abundance fitness (aPCA) (normalised: wild type 0, dead -1); higher = more abundant; growth selection in yeast, the domain comes from the species named
Conditions: Homo sapiens

Abundance fitness of substitutions, site by site:
D56: S -0.035; P -0.423; K -0.353; E 0.104; R -0.128; N -0.283; G -0.144; I -0.306; H -0.172; Q -0.162; M -0.231; V -0.348; W -0.258; T -0.145; F -0.244; A -0.049; C -0.163; L -0.142
E58: Y -0.267; V -0.108; P -0.257; C -0.18; H -0.09; T -0.155; F -0.321; W -0.456; A -0.113; S -0.099; R -0.025; N -0.307; K -0.043; M -0.169; Q -0.005; G -0.158; D -0.047; I -0.179
N61: G -0.201; I -0.464; A -0.15; Q -0.098; T -0.029; F -0.515; C -0.521; W -0.489; M -0.128; E 0.047; S -0.092; K 0.007; L -0.333; P -0.197; D -0.136; R -0.15
A53: G -0.52; T -0.345; P -0.377; M -0.387; Y -0.22; L -0.432; N -0.363; Q -0.48; S -0.121; V -0.26; C -0.211; F -0.212; W -0.79; I -0.834; D -0.498; E -0.227
E43: P -0.086; V -0.026; T 0.032; N 0.046; D 0.029; I -0.133; Q 0.007; C -0.102; H -0.087; K -0.236; L -0.06; Y -0.095; A 0.004; S 0; W -0.046; R -0.025; F -0.234; M -0.039; G -0.09
K52: Q -0.009; S -0.184; Y -0.302; T -0.288; I -0.664; L -0.178; H -0.272; G -0.213; R -0.041; V -0.229; E -0.059; M 0.102; W -0.33; F -0.507; A -0.101; P -0.38; N -0.285; D -0.357; C -0.076
S42: K -0.072; E -0.101; P -0.065; Q -0.322; C -0.28; L -0.801; T -0.078; V -0.56; N -0.135; A -0.085; D -0.045; R -0.24; W -1.34; G -0.165; Y -1.21; M -0.813
L47: N 0.202; R -0.091; S -0.039; P -0.975; W -0.141; C -0.149; F -0.085; D -0.157; E -0.184; V 0.055; M 0.017; T 0.005; A 0.058; K -0.235; H 0.032
R59: E 0.05; K -0.171; D 0.17; I 0.088; M -0.046; H -0.085; L 0.001; Q 0.087; F -0.079; S -0.017; W -0.126; T -0.063; N -0.169; V -0.021; A 0.05; C -0.121
E51: F -0.224; Q -0.043; A -0.088; K -0.156; C -0.215; D -0.072; Y -0.513; V -0.088; G -0.237; T -0.057; S -0.158; R -0.048; M -0.132; H -0.131; L -0.048; N -0.062; W -0.286; I -0.127
L41: Y -0.59; P -0.622; N -0.501; T -0.007; R -0.202; S -0.069; Q -0.052; K -0.317; V -0.023; M -0.145; W -0.617
Y60: P -0.109; Q -0.092; I -0.315; C -0.002; S 0.04; L -0.186; G -0.046; T -0.039; R -0.07; N 0.022; E -0.103; F 0.063; H -0.075; K -0.075; M -0.339; W -0.117; V -0.083; A -0.178; D 0.026
T54: W -0.346; L -0.009; K 0.046; A 0.035; I -0.186; G 0.07; S 0.015; Y -0.331; N -0.045; P -0.338; V -0.12; E 0.096; D -0.016; C -0.164
S62: A -0.017; C 0.12
Y49: A -0.507; S -0.676; Q -0.496; C -0.621; W -0.013; G -0.761; K -0.583; V -0.847; P -0.581; M -0.966; L -0.92; N -0.717; T -0.614; H -0.616; E -0.819; D -0.634; R -0.516
L57: S -0.135; P -0.342; W -0.103; Y -0.18; Q -0.115; K -0.123; D 0.024; I -0.136; T -0.19; F -0.17; N -0.224; C -0.084; E -0.066; R -0.058; V -0.119; H -0.112; G -0.14; M 0.03
E44: S -0.05; N -0.385; H -0.071; C -0.155; I -0.345; Q -0.142; F -0.284; M -0.408; Y -0.317; W -0.433; R -0.124; T -0.135; D -0.081; A -0.077; G -0.064; V -0.113
E45: N -0.476; Q -0.142; I -0.085; L -0.262; H -0.123; C -0.327; D -0.133; V -0.169; R -0.187; M -0.21; F -0.606; P -0.811; A -0.258; W -0.78; S -0.198; T -0.214; K -0.244; Y -0.787
K48: Y -0.078; C 0.041; V -0.008; W -0.187; F -0.121; N -0.375; H -0.426; T -0.205; Q -0.178; I -0.309; P -0.09; S -0.135; R -0.127; M -0.115; L -0.081; A -0.095; G -0.28; E -0.202
K46: F -1.21; R -0.058; E -1.08; W -1.17; H -0.353; T -0.432; N -1.37; S -0.641; A -0.395; G -0.84; D -0.848; C -0.569; V -0.431; L -0.685; M -0.508; Q -0.106
K55: R -0.076; C -0.086; D -0.045; L -0.065; G -0.137; A 0.059; M -0.053; T -0.058; I -0.001; N -0.103; P -0.339; V -0.016; S -0.067; W -0.16
